Here are results for 4 molecules from paper PMC10445101, “A neutralizable dimeric anti-thrombin aptamer with potent anticoagulant activity in mice”.

As usually defined, the Kd is the concentration at which binding is half-saturated.

For series [1], the target named is T1, alpha-thrombin (human) (Homo sapiens, UniProt P00734;P00734 315-363;364-622). The series is described as follows: SPR; SPR (Biacore X100, CM5, single-cycle kinetics, 1:1 fit): PBS pH 7.4, 0.05% (v/v) Tween 20; aptamers annealed in PBS (95 to 25 C); 1 M NaCl regeneration; assay t. A general note: SPR reads the build-up and loss of mass on a sensor chip optically.

The target in series [2] is T2, alpha-thrombin (mouse) (Mus musculus, UniProt P19221;P19221 312-360;361-618). The series is described as follows: SPR; SPR (Biacore X100, CM5, single-cycle kinetics, 1:1 fit): PBS pH 7.4, 0.05% (v/v) Tween 20; aptamers annealed in PBS (95 to 25 C); 1 M NaCl regeneration; assay temperature not stated. The note with it: protein: commercial, copies: 1;1.
Series [3] addresses T1, alpha-thrombin (human). The series is described as follows: SPR; 1:1 approximation; SPR (Biacore X100, CM5, single-cycle kinetics, 1:1 fit): PBS pH 7.4, 0.05% (v/v) Tween 20; aptamers annealed in PBS (95 to 25 C); 1 M NaCl regeneration; assay t.
For series [4], the target named is T2, alpha-thrombin (mouse). The series is described as follows: SPR; 1:1 approximation; SPR (Biacore X100, CM5, single-cycle kinetics, 1:1 fit): PBS pH 7.4, 0.05% (v/v) Tween 20; aptamers annealed in PBS (95 to 25 C); 1 M NaCl regeneration; assay temperature not stated. As to conditions: protein: commercial; copies: 1;1; pseudo-circular, 17 bp duplex linker.

On to AGGTCAGATGATGGGGATGGGGGGTTGGAGGAATGGATGACCT (structured_DNA) [M08s-1 (M08s)], for which the results for the Kd with alpha-thrombin (human) [1] and with alpha-thrombin (mouse) [2] (predicted G4 with stem) were 47.2 nM and 495 nM, respectively.

B1: Pse08-08 (M08s-ds17-M08s) (structured_DNA)
DNA: GTCACTAGAGGTCAGATGATGGGGATGGGGGGTTGGAGGAATGGATGACCTCTAGTGACTGATTTACGAGGTCAGATGATGGGGATGGGGGGTTGGAGGAATGGATGACCTCGTAAATCA
For B1, the Kd in the series with alpha-thrombin (human) [1] stood at 0.4 nM; in the series with alpha-thrombin (mouse) [2] (pseudo-circular, 17 bp duplex linker) it was 4.2 nM.

B2: Pse08-29 (M08s-ds17-TBA29) (structured_DNA)
DNA: GTCACTAGAGGTCAGATGATGGGGATGGGGGGTTGGAGGAATGGATGACCTCTAGTGACTGATTTACGAGTCCGTGGTAGGGCAGGTTGGGGTGACTCGTAAATCA
On to B2, for which the Kd was found to be 2.6 nM in the series with alpha-thrombin (human) [3] and 6.3 nM in the series with alpha-thrombin (mouse) [4].

For the molecule AGTCCGTGGTAGGGCAGGTTGGGGTGACT (structured_DNA) [TBA29 (HD22)], the Kd turned out to be 36.9 nM with alpha-thrombin (human) [1] and 22 nM in the series with alpha-thrombin (mouse) [2].
